Publication PMC5124697, “Expression Profiles and DNA-Binding Affinity of Five ERF Genes in Bunches of Vitis vinifera cv. Cardinal Treated with High Levels of CO2 at Low Temperature”

Tests used:
Experiment in all cases: EMSA; EMSA: 2 ug protein in 20 ul, 80 nM biotin probe, 50 ng/ul poly(dI-dC), 2.5% glycerol, 1x binding buffer (composition and pH not given), room temperature 20 min; 6% native PAGE, 0.5x TBE; competition 500x unlabeled probe (50 uM unlabeled DNA listed)
Details in all cases: protein: recombinant; tags: N-terminal His (pTrcHisA); label: 3' biotin
[1] = biological target: VviERF069-c (Vitis vinifera cv. Cardinal, UniProt A0A1L6BXE7 1-285)
[2] = biological target: VviERF11-c (Vitis vinifera cv. Cardinal, UniProt A0A1L6BXF0 1-220)
[3] = biological target: VviERF2-c (Vitis vinifera cv. Cardinal, UniProt A0A1L6BXE6 1-282)
[4] = biological target: VviERF10-c (Vitis vinifera cv. Cardinal, UniProt F6HIF5 1-204)
[5] = biological target: VviERF6L7-c (Vitis vinifera cv. Cardinal, UniProt A0A1L6BXF1 1-277)

Measured: binding result

VviERF6L7-c, sequence (A0A1L6BXF1 entry or part of it): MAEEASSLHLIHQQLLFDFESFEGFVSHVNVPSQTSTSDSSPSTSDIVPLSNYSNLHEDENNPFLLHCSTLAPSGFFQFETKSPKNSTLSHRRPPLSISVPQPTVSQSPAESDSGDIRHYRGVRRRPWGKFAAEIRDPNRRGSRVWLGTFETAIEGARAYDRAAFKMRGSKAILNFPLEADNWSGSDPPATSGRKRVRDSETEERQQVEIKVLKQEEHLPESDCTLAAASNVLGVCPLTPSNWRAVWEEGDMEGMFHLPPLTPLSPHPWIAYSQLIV
VviERF11-c, sequence (A0A1L6BXF0 entry or part of it): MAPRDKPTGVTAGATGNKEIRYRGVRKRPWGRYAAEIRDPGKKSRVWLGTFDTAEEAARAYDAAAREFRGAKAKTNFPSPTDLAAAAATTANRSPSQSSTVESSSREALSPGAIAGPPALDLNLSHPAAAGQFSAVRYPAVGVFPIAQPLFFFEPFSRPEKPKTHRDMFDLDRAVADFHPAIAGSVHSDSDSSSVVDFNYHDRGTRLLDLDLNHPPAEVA
VviERF2-c, sequence (A0A1L6BXE6 entry or part of it): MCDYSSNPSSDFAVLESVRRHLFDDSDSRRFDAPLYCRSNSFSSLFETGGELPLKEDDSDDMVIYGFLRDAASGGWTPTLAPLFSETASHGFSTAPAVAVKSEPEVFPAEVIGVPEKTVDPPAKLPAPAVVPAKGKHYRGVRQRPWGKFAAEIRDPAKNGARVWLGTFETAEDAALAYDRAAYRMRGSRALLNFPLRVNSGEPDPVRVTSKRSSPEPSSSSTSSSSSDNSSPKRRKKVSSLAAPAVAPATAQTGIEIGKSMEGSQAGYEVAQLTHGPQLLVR
VviERF10-c, sequence (F6HIF5 entry or part of it): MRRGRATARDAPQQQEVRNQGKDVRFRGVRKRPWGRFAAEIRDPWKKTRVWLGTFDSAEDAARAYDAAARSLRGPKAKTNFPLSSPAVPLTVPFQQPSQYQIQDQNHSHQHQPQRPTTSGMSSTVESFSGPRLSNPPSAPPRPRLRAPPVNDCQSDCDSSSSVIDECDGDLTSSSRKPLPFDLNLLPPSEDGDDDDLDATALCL
VviERF069-c, sequence (A0A1L6BXE7 entry or part of it): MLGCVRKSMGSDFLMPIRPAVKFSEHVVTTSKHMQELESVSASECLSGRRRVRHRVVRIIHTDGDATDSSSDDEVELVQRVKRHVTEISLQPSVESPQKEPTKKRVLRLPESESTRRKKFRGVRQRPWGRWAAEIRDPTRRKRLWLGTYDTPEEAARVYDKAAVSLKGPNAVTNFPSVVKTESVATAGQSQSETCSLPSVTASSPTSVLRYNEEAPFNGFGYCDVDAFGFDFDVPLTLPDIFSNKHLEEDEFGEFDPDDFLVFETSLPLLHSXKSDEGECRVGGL

B1: Le-osmo GCC box (dsDNA)
DNA 1: AAAAGCCGCCACAC
DNA 2: GTGTGGCGGCTTTT
no binding: [1] | [2] | [3] | [4] | [5]

B2: Nt-chit GCC box (dsDNA)
DNA 1: AAGAGCCGCCACTA
DNA 2: TAGTGGCGGCTCTT
no binding: [1] | [2] | [3] | [4] | [5]

B3: Vcgns1 GCC box (dsDNA)
DNA 1: TGGAGCCGCCGGGA
DNA 2: TCCCGGCGGCTCCA
no binding: [5]

B4: Vcchit1b GCC box (dsDNA)
DNA 1: AAAAGCCGCCCACG
DNA 2: CGTGGGCGGCTTTT
binds: [2] | [3]
